From US20240167007A1 (RHEINISCHE FRIEDRICH WILHELMS UNIVERSIT T BONN, published 2024)
Changes are numbered by the printed parent chain. Names and notes keep the numbering of the source.

Assays:
[1] = target: mannose 6-phosphate (M6P) receptor (MPR300) on human hepatoma cells (HuH7) (human), P11717; experiment: cell-based or functional assay
[2] = target: the molecule itself; experiment: size exclusion chromatography (Superdex 200), pH 7.0; self-association
Protocol: The indicated hASA-variants were separated by size exclusion chromatography using a Superdex 200 column (Amersham Pharmacia) linked to an Äkta FPLC system (GE Healthcare). The buffer was 150 mM NaCl, 20 mM Bis-Tris, pH 7.0. Fractions (0.5 ml) were collected and analysed on ASA activity using p-nitrocatechol sulfate as a substrate. Elution profiles of the four indicated hASA-variants are superimposed. While wildtype hASA presents as a dimer at neutral pH, E424A-mutants form octamers.

Chain of mannose 6-phosphate (M6P) receptor (MPR300) on human hepatoma cells (HuH7) (human), P11717 (P11717 41-2491): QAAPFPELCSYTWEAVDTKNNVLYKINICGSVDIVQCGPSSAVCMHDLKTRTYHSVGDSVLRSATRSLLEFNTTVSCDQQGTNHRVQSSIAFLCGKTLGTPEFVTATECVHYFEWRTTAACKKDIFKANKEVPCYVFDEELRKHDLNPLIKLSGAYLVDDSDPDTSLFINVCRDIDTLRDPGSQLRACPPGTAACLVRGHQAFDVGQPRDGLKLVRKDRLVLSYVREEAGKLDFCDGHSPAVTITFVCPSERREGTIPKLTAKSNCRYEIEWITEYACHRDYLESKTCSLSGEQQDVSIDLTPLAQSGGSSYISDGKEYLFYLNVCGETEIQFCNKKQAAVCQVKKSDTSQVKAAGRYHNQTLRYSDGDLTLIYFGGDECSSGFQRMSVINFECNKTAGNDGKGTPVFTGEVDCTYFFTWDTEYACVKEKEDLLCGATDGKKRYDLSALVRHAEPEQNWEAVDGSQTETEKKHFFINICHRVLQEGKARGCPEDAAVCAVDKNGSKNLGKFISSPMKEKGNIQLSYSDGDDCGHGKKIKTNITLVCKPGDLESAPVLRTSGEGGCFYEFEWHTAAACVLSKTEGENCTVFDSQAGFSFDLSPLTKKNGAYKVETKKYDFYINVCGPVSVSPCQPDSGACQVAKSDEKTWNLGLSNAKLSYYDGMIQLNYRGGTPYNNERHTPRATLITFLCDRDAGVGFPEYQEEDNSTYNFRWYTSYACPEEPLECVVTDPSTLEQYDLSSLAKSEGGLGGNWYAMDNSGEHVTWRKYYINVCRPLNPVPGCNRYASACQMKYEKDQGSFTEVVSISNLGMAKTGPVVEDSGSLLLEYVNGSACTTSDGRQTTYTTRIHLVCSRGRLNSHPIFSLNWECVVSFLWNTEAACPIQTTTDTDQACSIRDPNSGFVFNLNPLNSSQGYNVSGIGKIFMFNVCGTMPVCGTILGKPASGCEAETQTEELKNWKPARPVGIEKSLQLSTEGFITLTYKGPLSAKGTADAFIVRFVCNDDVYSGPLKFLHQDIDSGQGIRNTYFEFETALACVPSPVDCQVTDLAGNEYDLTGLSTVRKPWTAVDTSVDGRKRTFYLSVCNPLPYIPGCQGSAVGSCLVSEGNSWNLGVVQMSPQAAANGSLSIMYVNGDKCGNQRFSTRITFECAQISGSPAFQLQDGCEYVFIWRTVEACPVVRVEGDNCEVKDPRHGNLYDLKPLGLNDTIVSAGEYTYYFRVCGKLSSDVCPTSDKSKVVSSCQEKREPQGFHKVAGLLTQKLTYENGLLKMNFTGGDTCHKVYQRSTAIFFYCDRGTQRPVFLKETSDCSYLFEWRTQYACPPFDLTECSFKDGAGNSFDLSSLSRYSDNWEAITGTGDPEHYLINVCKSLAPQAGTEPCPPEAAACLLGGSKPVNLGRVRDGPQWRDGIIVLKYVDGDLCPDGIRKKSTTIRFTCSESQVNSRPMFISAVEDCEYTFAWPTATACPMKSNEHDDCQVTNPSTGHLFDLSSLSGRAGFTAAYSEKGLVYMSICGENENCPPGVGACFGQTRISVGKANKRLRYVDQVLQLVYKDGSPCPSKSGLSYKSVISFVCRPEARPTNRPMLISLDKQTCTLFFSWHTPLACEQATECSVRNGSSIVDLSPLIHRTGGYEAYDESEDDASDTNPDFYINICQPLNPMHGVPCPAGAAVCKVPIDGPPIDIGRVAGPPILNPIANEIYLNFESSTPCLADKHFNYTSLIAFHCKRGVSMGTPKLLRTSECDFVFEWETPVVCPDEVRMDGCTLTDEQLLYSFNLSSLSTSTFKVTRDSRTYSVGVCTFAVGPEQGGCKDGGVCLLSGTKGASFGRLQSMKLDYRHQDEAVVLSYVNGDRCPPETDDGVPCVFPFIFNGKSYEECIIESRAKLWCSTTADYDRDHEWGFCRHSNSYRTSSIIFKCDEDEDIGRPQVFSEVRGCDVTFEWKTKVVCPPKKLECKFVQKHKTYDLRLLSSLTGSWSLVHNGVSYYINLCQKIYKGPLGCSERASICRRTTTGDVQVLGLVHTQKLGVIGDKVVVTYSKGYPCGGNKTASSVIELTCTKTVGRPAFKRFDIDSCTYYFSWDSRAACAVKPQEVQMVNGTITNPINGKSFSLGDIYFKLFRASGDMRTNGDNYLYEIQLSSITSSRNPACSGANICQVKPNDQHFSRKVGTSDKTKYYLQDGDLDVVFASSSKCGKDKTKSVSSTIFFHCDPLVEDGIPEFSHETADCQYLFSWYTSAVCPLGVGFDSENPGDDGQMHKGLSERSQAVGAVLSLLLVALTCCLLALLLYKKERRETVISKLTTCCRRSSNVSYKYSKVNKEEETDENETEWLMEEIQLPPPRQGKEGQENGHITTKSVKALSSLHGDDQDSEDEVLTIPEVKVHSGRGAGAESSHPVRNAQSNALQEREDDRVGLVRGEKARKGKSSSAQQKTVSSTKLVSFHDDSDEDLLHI

B1: hARSA-mutant E424A, P15289 19-507 (enzyme)
chain: RPPNIVLIFADDLGYGDLGCYGHPSSTTPNLDQLAAGGLRFTDFYVPVSLCTPSRAALLTGRLPVRMGMYPGVLVPSSRGGLPLEEVTVAEVLAARGYLTGMAGKWHLGVGPEGAFLPPHQGFHRFLGIPYSHDQGPCQNLTCFPPATPCDGGCDQGLVPIPLLANLSVEAQPPWLPGLEARYMAFAHDLMADAQRQDRPFFLYYASHHTHYPQFSGQSFAERSGRGPFGDSLMELDAAVGTLMTAIGDLGLLEETLVIFTADNGPETMRMSRGGCSGLLRCGKGTTYEGGVREPALAFWPGHIAPGVTHELASSLDLLPTLAALAGAPLPNVTLDGFDLSPLLLGTGKSPRQSLFFYPSYPDEVRGVFAVRTGKYKAHFFTQGSAHSDTTADPACHASSSLTAHAPPLLYDLSKDPGENYNLLGGVAGATPEVLQALKQLQLLKAQLDAAVTFGPSQVARGEDPALQICCHPGCTPRPACCHCPDPHA
[1]
  uptake by the human hepatoma cell line HuH7, compared to wildtype hARSA (internalized enzyme by ELISA): 20%

B2: wildtype human arylsulfatase A (enzyme)
chain: B1 chain with A406E
notes: Expressed in CHO cells and glycosylated; also called wildtype hARSA; wildtype hASA
[2]
  binding result: binds
